According to patent US20110044994A1 (THERACLONE SCIENCES, published 2011):
Positions count from the first letter of the chain named.

B1: 1443_C16 (PG16) (antibody, V domains shown)
VH: QEQLVESGGGVVQPGGSLRLSCLASGFTFHKYGMHWVRQAPGKGLEWVALISDDGMRKYHSDSMWGRVTISRDNSKNTLYLQFSSLKVEDTAMFFCAREAGGPIWHDDVKYYDFNDGYYNYHYMDVWGKGTTVTVSS
VL: QSALTQPASVSGSPGQTITISCNGTSSDVGGFDSVSWYQQSPGKAPKVMVFDVSHRPSGISNRFSGSKSGNTASLTISGLHIEDEGDYFCSSLTDRSHRIFGGGTKVTVLG
B2: 1496_C09 (PG9) (antibody, V domains shown)
VH: QRLVESGGGVVQPGSSLRLSCAASGFDFSRQGMHWVRQAPGQGLEWVAFIKYDGSEKYHADSVWGRLSISRDNSKDTLYLQMNSLRVEDTATYFCVREAGGPDYRNGYNYYDFYDGYYNYHYMDVWGKGTTVTVSS
VL: QSALTQPASVSGSPGQSITISCNGTSNDVGGYESVSWYQQHPGKAPKVVIYDVSKRPSGVSNRFSGSKSGNTASLTISGLQAEDEGDYYCKSLTSTRRRVFGTGTKLTVLG
B3: 1456_P20 (PG20) (antibody, human IgG1, kappa, V domains shown)
VH: QVRLVQSGPEVKKPGSSVTVSCQASGGTFSSYAFTWVRQAPGQGLEWLGMVTPIFGEAKYSQRFEGRVTITADESTSTTSIELRGLTSEDTAIYYCARDRRAVPIATDNWLDPWGQGTLVTVSS
VL: DIQLTQSPSSLSASVGDRVSITCRASQTINNYLNWYQQTPGKAPKLLIYGASNLQNGVPSRFSGSGSGTDFTLTISSLQPEDFATYYCQQSFSTPRTFGQGTRLDIKR
B4: 1460_G14 (PGG14) (antibody, human IgG1, kappa, V domains shown)
VH: QVLLVQSGTEVKKPGSSVKVSCQASGGAFSSYAFSWVRQAPGQGLEWMGMITPVFGETKYAPRFQGRLTLTAEESLSTTYMELRSLTSDDTAFYYCTRDRRVVPMATDNWLDPWGQGTLVTVSS
VL: B3 VL with S20T, I21V, N30H, N31T, T39I, N53T, N56S, S76N, F92Y
B5: 1495_C14 (PGC14) (antibody, human IgG1, lambda, V domains shown)
VH: DGHLVQSGVEVKKTGATVKISCKVSGYSFIDYYLHWVQRAPGKGLEWVGLIDPENGEARYAEKFQGRVTIIADTSIDTGYMEMRSLKSEDTAVYFCAAGAVGADSGSWFDPWGQGTLVTVSS
VL: SYELTQPPSVSVSPGQTASITCSGSKLGDKYVSWYQLRPGQSPILVMYENDRRPSGIPERFSGSNSGDTATLTISGTQALDEADFYCQAWETTTTTFVFFGGGTQLTVLG

Experiments:
[1] = target: T1, recombinant, monomeric gp120JR-CSF (HIV-1, UniProt P20871 32-503); assay: ELISA screen of B cell culture supernatants
T1 construct: domain: gp120; also called JR-CSF gp120; JR-CSFgp120

[2] = target: T2, recombinant gp41HxB2 (HIV-1, UniProt P04578 541-682); assay: ELISA screen of B cell culture supernatants
T2 construct: domain: gp41

[3] = target: ADA pseudovirus Env (HIV-1); assay: cell-based or functional assay
[4] = target: JR-CSF pseudovirus (HIV-1 Env on the virions) (HIV-1, UniProt P20871 32-848); assay: cell-based or functional assay
[5] = target: JR-FL (E168K) pseudovirus Env (HIV-1); assay: cell-based or functional assay
[6] = target: 92RW020 pseudovirus Env (HIV-1); assay: cell-based or functional assay
[7] = target: T2, recombinant gp41HxB2; assay: ELISA
[8] = target: T1, recombinant, monomeric gp120JR-CSF; assay: mAb specificity by ELISA

Binder | binding result [1] | binding result [2] | IC50 (ug/ml), pseudovirus neutralization, TZM-bl assay [3] [µg/mL] | IC50 (ug/ml), pseudovirus neutralization, TZM-bl assay [4] [µg/mL] | IC50 (ug/ml), pseudovirus neutralization, TZM-bl assay [5] [µg/mL] | IC50 (ug/ml), pseudovirus neutralization, TZM-bl assay [6] [µg/mL] | binding result [7] | binding result [8]
B1 | no binding | no binding | 0.004 | 0.001 | 0.006 | 0.09 | – | –
B2 | – | no binding | 0.2 | – | – | 0.1 | – | –
B3 | – | – | – | – | – | – | no binding | binds
B4 | – | – | – | – | – | – | no binding | binds
B5 | – | – | – | – | – | – | no binding | binds
